Reference: PMC8580825, “Scaffolding protein CcmM directs multiprotein phase separation in β-carboxysome biogenesis” (Nature Structural & Molecular Biology, 2021)
Positions count from the first letter of the chain named.

B1: γCAL-2S (domain or fragment, Synechococcus elongatus PCC 7942, UniProt Q03513 1-429, looked up)
chain: MPSPTTVPVATAGRLAEPYIDPAAQVHAIASIIGDVRIAAGVRVAAGVSIRADEGAPFQVGKESILQEGAVIHGLEYGRVLGDDQADYSVWIGQRVAITHKALIHGPAYLGDDCFVGFRSTVFNARVGAGSVIMMHALVQDVEIPPGRYVPSGAIITTQQQADRLPEVRPEDREFARHIIGSPPVIVRSTPAATADFHSTPTPSPLRPSSSEATTVSAYNGQGRLSSEVITQVRSLLNQGYRIGTEHADKRRFRTSSWQPCAPIQSTNERQVLSELENCLSEHEGEYVRLLGIDTNTRSRVFEALIQRPDGSVPESLGSQPVAVASGGGRQSSYASVSGNLSAEVVNKVRNLLAQGYRIGTEHADKRRFRTSSWQSCAPIQSSNERQVLAELENCLSEHEGEYVRLLGIDTASRSRVFEALIQDPQGPV
notes: C-terminal truncation of CcmM (M58), Synechococcus elongatus PCC 7942, with the γCAL domain and two SSUL modules, residues 1-429; also called SeγCAL-2S(1–429); γCAL-2Sox; source: E. coli BL21 (DE3), purified as M58; not shown: His6-ubiquitin, N-terminal, cleaved
B2: Rubisco holoenzyme (RbcL8S8) of Synechococcus elongatus PCC 7942 (complex)
chain 1: MPKTQSAAGYKAGVKDYKLTYYTPDYTPKDTDLLAAFRFSPQPGVPADEAGAAIAAESSTGTWTTVWTDLLTDMDRYKGKCYHIEPVQGEENSYFAFIAYPLDLFEEGSVTNILTSIVGNVFGFKAIRSLRLEDIRFPVALVKTFQGPPHGIQVERDLLNKYGRPMLGCTIKPKLGLSAKNYGRAVYECLRGGLDFTKDDENINSQPFQRWRDRFLFVADAIHKSQAETGEIKGHYLNVTAPTCEEMMKRAEFAKELGMPIIMHDFLTAGFTANTTLAKWCRDNGVLLHIHRAMHAVIDRQRNHGIHFRVLAKCLRLSGGDHLHSGTVVGKLEGDKASTLGFVDLMREDHIEADRSRGVFFTQDWASMPGVLPVASGGIHVWHMPALVEIFGDDSVLQFGGGTLGHPWGNAPGATANRVALEACVQARNEGRDLYREGGDILREAGKWSPELAAALDLWKEIKFEFETMDKL
chain 2: MSMKTLPKERRFETFSYLPPLSDRQIAAQIEYMIEQGFHPLIEFNEHSNPEEFYWTMWKLPLFDCKSPQQVLDEVRECRSEYGDCYIRVAGFDNIKQCQTVSFIVHRPGRY
B3: β-class carbonic anhydrase CcaA of Synechococcus elongatus PCC 7942 (enzyme, UniProt P27134 1-272, looked up)
chain: MRKLIEGLRHFRTSYYPSHRDLFEQFAKGQHPRVLFITCSDSRIDPNLITQSGMGELFVIRNAGNLIPPFGAANGGEGASIEYAIAALNIEHVVVCGHSHCGAMKGLLKLNQLQEDMPLVYDWLQHAQATRRLVLDNYSGYETDDLVEILVAENVLTQIENLKTYPIVRSRLFQGKLQIFGWIYEVESGEVLQISRTSSDDTGIDECPVRLPGSQEKAILGRCVVPLTEEVAVAPPEPEPVIAAVAAPPANYSSRGWLAPEQQQRIYRGNAS
notes: CcaA (~30 kDa), Synechococcus elongatus PCC 7942; ccaA gene amplified from genomic DNA; 272 residues (last 17 are 256-272); For microscopy labelled at the N terminus with Alexa405 and mixed 1:10 with unlabelled protein; also called CcaAAF4; source: E. coli BL21 (DE3), purified (Ni-NTA, H6Ub cleaved, SEC); not shown: His6-ubiquitin, N-terminal, cleaved
B4: CcmM full-length protein M58 of Synechococcus elongatus PCC 7942 (natural protein, UniProt Q03513 1-539, looked up)
chain: MPSPTTVPVATAGRLAEPYIDPAAQVHAIASIIGDVRIAAGVRVAAGVSIRADEGAPFQVGKESILQEGAVIHGLEYGRVLGDDQADYSVWIGQRVAITHKALIHGPAYLGDDCFVGFRSTVFNARVGAGSVIMMHALVQDVEIPPGRYVPSGAIITTQQQADRLPEVRPEDREFARHIIGSPPVIVRSTPAATADFHSTPTPSPLRPSSSEATTVSAYNGQGRLSSEVITQVRSLLNQGYRIGTEHADKRRFRTSSWQPCAPIQSTNERQVLSELENCLSEHEGEYVRLLGIDTNTRSRVFEALIQRPDGSVPESLGSQPVAVASGGGRQSSYASVSGNLSAEVVNKVRNLLAQGYRIGTEHADKRRFRTSSWQSCAPIQSSNERQVLAELENCLSEHEGEYVRLLGIDTASRSRVFEALIQDPQGPVGSAKAAAAPVSSATPSSHSYTSNGSSSSDVAGQVRGLLAQGYRISAEVADKRRFQTSSWQSLPALSGQSEATVLPALESILQEHKGKYVRLIGIDPAARRRVAELLIQKP
notes: CcmM (M58, ~58 kDa), Synechococcus elongatus PCC 7942; full-length ccmM gene amplified from genomic DNA; SeCcmM (1-539); Used reduced (M58red, 5 mM DTT) or oxidized (M58ox, 2 mM H2O2; disulfides in SSUL modules); For microscopy labelled at the N terminus with Alexa532 and mixed 1:10 with unlabelled protein; also called SeM58; M58red; source: E. coli BL21 (DE3), purified (Ni-NTA, H6Ub cleaved with …)

Tests used:
[1] = molecular target: the molecule itself; test: turbidity assay; one protein alone (homodemixing: association of trimers into a homocondensate); 50 mM KCl; M58ox 0.5–3.0 μM, M58red 5 and 6 μM; truncations and point mutants oxidized at 3 μM; M58-C4S and CCTRIM35 at 5 μM; 25 °C
[2] = molecular target: B4; test: turbidity assay; 0.25 μM Rubisco (RbcL8S8) with increasing M58red, M58ox, CCTRIM35red or CCTRIM35ox at 50 mM KCl; or with 0.25 μM M58, 0.25 μM CCTRIM35 or 0.75 μM M35 at 50 and 100 mM KCl; reducing or oxidizing; apparent; conditions: both partners purified
[3] = molecular target: β-class carbonic anhydrase CcaA of Synechococcus elongatus PCC 7942 (Synechococcus elongatus PCC 7942) (UniProt P27134); test: SEC-MALS; 2 mg/ml protein; 50 mM Tris-HCl pH 8.0/150 mM KCl or 50 mM Tris-HCl pH 8.0/500 mM KCl/5 mM DTT; 25 °C; oligomeric state in solution
M58(D172K) = molecular target: T1, M58(D172K) (Synechococcus elongatus PCC 7942, UniProt Q03513 1-539, D172K); test: turbidity assay; absorbance at 340 nm, 25 °C, 50 mM Tris-HCl pH 8.0, 10 mM Mg(OAc)2; 0.5 μM CcaA or its mutants (0–1.25 μM for the apparent KD) with 0.5 μM M58 or its truncations and mutants, 0.75 μM γCAL198 or 2.25 μM M35; 100 mM KCl (50–400 mM in the salt series); reducing (5 mM DTT) or oxidizing; apparent; a protein alone: association of its oligomers into condensates; conditions: both partners purified
T1 construct: CcmM (M58), Synechococcus elongatus PCC 7942, point mutant in the γCAL domain (head-to-head salt bridge); also called SeM58-D172K; M58oxD172K; source: E. coli BL21 (DE3), purified as wild-type M58; not shown: His6-ubiquitin, N-terminal, cleaved
T1 sequence (looked up): B4 chain with D172K

[4] = molecular target: B4; test: as above; conditions: both partners purified
M58(R164D) = molecular target: T2, M58(R164D) (Synechococcus elongatus PCC 7942, UniProt Q03513 1-539, R164D); test: as above; conditions: both partners purified
T2 construct: CcmM (M58), Synechococcus elongatus PCC 7942, point mutant in the γCAL domain (head-to-head salt bridge); also called SeM58-R164D; M58oxR164D; source: E. coli BL21 (DE3), purified as wild-type M58; not shown: His6-ubiquitin, N-terminal, cleaved
T2 sequence (looked up): B4 chain with R164D

[5] = molecular target: CcmM full-length protein M58 of Synechococcus elongatus PCC 7942 (Synechococcus elongatus PCC 7942) (UniProt Q03513); test: SEC-MALS; 2 mg/ml protein; 50 mM Tris-HCl pH 8.0/150 mM KCl or 50 mM Tris-HCl pH 8.0/500 mM KCl/5 mM DTT; 25 °C; oligomeric state in solution
[6] = molecular target: T3, RbcL8 core complex of Rubisco (Synechococcus elongatus PCC 7942); test: turbidity assay; 0.25 μM RbcL8 with M58red or M58ox at varied concentrations; M35red or M35ox with RbcL8 as controls; 50–200 mM KCl; conditions: both partners purified
T3 chain: B2 chain 1

Binder: B1
- binding result [1]: binds

Binder: B2
- Kd [2]: ~70 nM

Binder: B3
- stoichiometry N [3]: 4
- binding result (M58(D172K)): binds
- Kd [4]: ~200 nM
- binding result (M58(R164D)): binds

Binder: B4
- stoichiometry N [5]: 3
- fold lower affinity than for the Rubisco holoenzyme [6]: ~4 fold
